The values that follow come from article PMC10213792 (Acta Pharmaceutica Sinica. B, 2023).

B1: His-tagged SepFc (N-terminal truncated version of SepF, amino acids 115-203) (domain or fragment)
chain: EMTRPRFGSWLRNSTRGALAMDPRRMAMMFEDGHPLSKITTLRPKDYSEARTIGERFRDGSPVIMDLVSMDNADAKRLVDFAAGLAFAL

The target in one assay is SepF (Mycobacterium tuberculosis, UniProt P9WGJ5). The experiment in a line: SPR. In kind it is binding.
For a further assay, the target named is T1, His-tagged FtsZ (M. tuberculosis H37Rv, UniProt P9WN95 1-379).
T1 sequence: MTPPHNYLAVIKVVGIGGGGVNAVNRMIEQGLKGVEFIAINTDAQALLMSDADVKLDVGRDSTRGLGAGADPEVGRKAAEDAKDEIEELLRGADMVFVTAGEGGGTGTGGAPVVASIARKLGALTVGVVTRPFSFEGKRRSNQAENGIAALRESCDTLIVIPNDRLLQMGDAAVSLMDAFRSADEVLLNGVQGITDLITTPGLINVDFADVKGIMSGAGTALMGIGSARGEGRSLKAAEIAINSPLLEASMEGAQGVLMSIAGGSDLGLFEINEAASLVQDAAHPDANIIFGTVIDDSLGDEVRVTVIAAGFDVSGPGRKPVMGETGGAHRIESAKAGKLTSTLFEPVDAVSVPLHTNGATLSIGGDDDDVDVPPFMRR
The experiment in a line: SPR.

The target in assay [1] is B1. Nature of the assay: fluorescence polarisation. (In general: Polarisation of emitted light reports the rotation of a fluorescent probe.)

The star is where a group is joined. FITC = O=C1OC2(c3ccc(O)cc3Oc3cc(O)ccc32)c2ccc(NC(=S)*)cc21

Sequence of SepF (P9WGJ5 115-203): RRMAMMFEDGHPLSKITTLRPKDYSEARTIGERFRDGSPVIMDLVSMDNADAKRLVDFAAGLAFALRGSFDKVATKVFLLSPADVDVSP

As usually defined, the Kd is the equilibrium constant for the complex coming apart. Higher therefore signals lower affinity. At SepF, `OC(COc1ccc2ccccc2c1)CN1CCCN(CC(O)COc2ccc3ccccc3c2)CC1` (stereo not drawn) [T0349, 1-{4-[2-hydroxy-3-(naphthalen-2-yloxy)propyl]-1,4-diazepan-1-yl}-3-(naphthalen-2-yloxy) propan-2-ol] yielded a Kd of 46.8 µM.

B1 registered a Kd in the assay with His-tagged FtsZ of 5.16 µM.

B2: FITC-FtsZ (FITC-SIGGDDDDVDVPPFMRR-OH, 363-379 amino acids of the full-length FtsZ) (peptide)
peptide: {FITC}-SIGGDDDDVDVPPFMRR-OH
B2 came in with a Kd in assay [1] of 0.0186 µM.
